This is an account of results in patent publication US20230203142A1 (published 2023).

For orientation: Kd means the free concentration of one partner at which half of the binding sites on the other are occupied at equilibrium, for simple one-to-one binding.

Assay [1] has as its target T1, human NDPK-A (nucleoside diphosphate kinase A), full-length recombinant (human, UniProt P15531 2-152).
T1 construct: Bought protein (Acro Biosystems NM1-H5147); It was fluorescently labelled (lysine, cysteine or His-tag dye) in MST; also called nm23
Nature of the assay: MST, NDPK labelled, FABP4 unlabelled. As for the experimental part:
(§1) Human NDPK-A (Acro Biosystems, product number NM1-H5147) was prepared in PBS to a stock concentration of 0.4 mg/ml. Human ADK (Novus Biologicals, product number NBP1-44382 or R&D Systems, product number 8024-AK-025) was purchased at a stock concentration of 0.5 mg/ml and buffer exchanged into PBS. Protein concentration used for labeling was 20 uM. Experiments were conducted independently with each of NDPK and ADK labeled with each kit (i.e., experiments were performed with lysine-labeled, cysteine-labeled, and His-labeled versions of each protein to confirm the site of labeling was not influencing detected interaction). […] Concentration of labeled proteins ranged from 12 nM to 20 nM, as determined by MST quantification to obtain a fluorescence intensity of ˜350 from each capillary tube. […]
(§2) To further confirm the formation of the proposed complex, GST-tagged NDPK (GST-NDPK) was generated and immunoprecipitation experiments were performed to investigate the interaction of each proposed component with NDPK. Interaction between all three components of the proposed complex, as well as with the complex and a-Ab (FIG. 4M) were readily identified.

For assay [2], the target named is T2, human ADK (adenosine kinase), recombinant (human, UniProt P55263 2-362).
T2 construct: Bought protein (Novus Biologicals NBP1-44382 or R&D Systems 8024-AK-025); It was fluorescently labelled in MST
T2 sequence (P55263 2-362 limits assumed): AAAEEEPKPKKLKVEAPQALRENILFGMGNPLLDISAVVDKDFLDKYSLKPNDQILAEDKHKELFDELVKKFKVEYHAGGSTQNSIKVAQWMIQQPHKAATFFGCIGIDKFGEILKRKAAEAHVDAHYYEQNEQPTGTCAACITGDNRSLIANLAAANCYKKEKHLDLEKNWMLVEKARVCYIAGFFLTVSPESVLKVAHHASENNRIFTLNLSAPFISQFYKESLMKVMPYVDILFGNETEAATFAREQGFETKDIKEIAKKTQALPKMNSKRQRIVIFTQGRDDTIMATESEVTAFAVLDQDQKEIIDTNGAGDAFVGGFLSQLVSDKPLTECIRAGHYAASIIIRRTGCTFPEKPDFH
The assay can be described thus: MST, one-to-one recombinant proteins, ADK labelled. As for the experimental part: Additionally, one-to-one recombinant protein interaction assays were performed using Microscale Thermophoresis (MST) to independently validate the interactions between each of the proposed complex components. MST is a technology for the interaction analysis of biomolecules. MST is the directed movement of particles in a microscopic temperature gradient. Any change of the hydration shell of biomolecules due to changes in their structure/conformation results in a relative change of the movement along the temperature gradient and is used to determine binding affinities. MST allows measurement of interactions directly in solution without the need of immobilization to a surface (immobilization-free technology).
To perform this technique, proteins were desalted and buffer exchanged into PBS prior to labeling. […] Experiments were conducted independently with each of NDPK and ADK labeled with each kit (i.e., experiments were performed with lysine-labeled, cysteine-labeled, and His-labeled versions of each protein to confirm the site of labeling was not influencing detected interaction). […] Concentration of labeled proteins ranged from 12 nM to 20 nM, as determined by MST quantification to obtain a fluorescence intensity of ˜350 from each capillary tube. […]

In another assay the target is T3, NDPK-A peptide 15 (human).
T3 peptide: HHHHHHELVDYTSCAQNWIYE
Nature of the assay: MST, His-tag-labelled peptide against a-Ab.

The next assay deals with T4, NDPK-A peptide 4 (human).
T4 peptide: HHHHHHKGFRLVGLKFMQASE
The assay can be described thus: MST, His-tag-labelled peptide against a-Ab.

Another assay addresses T5, NDPK-A peptide 12 (human).
T5 peptide: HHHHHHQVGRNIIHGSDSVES
The assay can be described thus: MST, His-tag-labelled peptide against a-Ab.

A further assay deals with T6, NDPK-A peptide 10 (human).
T6 peptide: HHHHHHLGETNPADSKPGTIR
The assay can be described thus: MST, His-tag-labelled peptide against a-Ab.

A further assay concerns the target T7, NDPK-A peptide 6 (human).
T7 peptide: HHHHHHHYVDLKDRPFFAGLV
Nature of the assay: MST, His-tag-labelled peptide against a-Ab.

For another assay, the target named is T8, NDPK-A peptide 9 (human).
T8 peptide: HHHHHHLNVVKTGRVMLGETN
The assay can be described thus: MST, His-tag-labelled peptide against a-Ab.

The target in the next assay is T9, NDPK-A peptide 11 (human).
T9 peptide: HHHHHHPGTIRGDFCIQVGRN
The assay can be described thus: MST, His-tag-labelled peptide against a-Ab.

A further assay deals with T10, NDPK-A peptide 5 (human).
T10 peptide: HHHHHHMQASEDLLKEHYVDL
Nature of the assay: MST, His-tag-labelled peptide against a-Ab.

The target in the next assay is T11, NDPK-A peptide 13 (human).
T11 peptide: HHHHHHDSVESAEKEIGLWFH
The assay can be described thus: MST, His-tag-labelled peptide against a-Ab.

The target in the next assay is T12, NDPK-A peptide 7 (human).
T12 peptide: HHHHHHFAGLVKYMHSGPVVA
Nature of the assay: MST, His-tag-labelled peptide against a-Ab.

The target of the next assay is T13, NDPK-A peptide 14 (human).
T13 peptide: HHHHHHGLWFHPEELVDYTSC
Nature of the assay: MST, His-tag-labelled peptide against a-Ab.

The next assay addresses T14, NDPK-A peptide 1 (human).
T14 peptide: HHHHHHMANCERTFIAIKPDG
The assay can be described thus: MST, His-tag-labelled peptide against a-Ab.

For assay [3], the target named is T1, human NDPK-A (nucleoside diphosphate …). Nature of the assay: MST, His-tagged full-length NDPK-A; column head prints 'Binding Affinity (Ka)'.
For assay [4] the target is unchanged. Nature of the assay: MST, NDPK labelled, antibody unlabelled. As for the experimental part: as §1, §2
Assay [5] concerns the target T2, human ADK (adenosine kinase), …. Nature of the assay: MST, ADK labelled, antibody unlabelled. As for the experimental part:
To perform this technique, proteins were desalted and buffer exchanged into PBS prior to labeling. Desalting was performed using Zeba Spin Desalting Columns (Thermo Scientific, product number 89882, 0.5 ml volume) in a volume of 0.1 ml according to the manufacturer's instructions. Human NDPK-A (Acro Biosystems, product number NM1-H5147) was prepared in PBS to a stock concentration of 0.4 mg/ml. Human ADK (Novus Biologicals, product number NBP1-44382 or R&D Systems, product number 8024-AK-025) was purchased at a stock concentration of 0.5 mg/ml and buffer exchanged into PBS. Protein concentration used for labeling was 20 uM. Experiments were conducted independently with each of NDPK and ADK labeled with each kit (i.e., experiments were performed with lysine-labeled, cysteine-labeled, and His-labeled versions of each protein to confirm the site of labeling was not influencing detected interaction). Labeling kits were: Monolith Protein Labeling Kit RED-NETS (Amine Reactive; Product number MO-L001), Monolith Protein Labeling Kit RED-MALEIMIDE (Cysteine Reactive; Product number: MO-L004), and Monolith His-Tag Labeling Kit RED-tris-NTA (Product number: MO-L008). […] Concentration of labeled proteins ranged from 12 nM to 20 nM, as determined by MST quantification to obtain a fluorescence intensity of ˜350 from each capillary tube. […]

The target in a further assay is T15, NDPK-A peptide 8 (human).
T15 peptide: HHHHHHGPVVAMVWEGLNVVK
The assay can be described thus: MST, His-tagged peptide; column head prints 'Binding Affinity (Ka)'.

The next assay concerns the target T16, NDPK-A peptide 2 (human).
T16 peptide: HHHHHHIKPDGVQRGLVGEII
Described as above.

For a further assay, the target named is T17, NDPK-A peptide 3 (human).
T17 peptide: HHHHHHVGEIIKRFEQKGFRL
The assay is described as above.

T1 sequence (P15531 other isoform, or with tags, fused parts or gaps limits assumed): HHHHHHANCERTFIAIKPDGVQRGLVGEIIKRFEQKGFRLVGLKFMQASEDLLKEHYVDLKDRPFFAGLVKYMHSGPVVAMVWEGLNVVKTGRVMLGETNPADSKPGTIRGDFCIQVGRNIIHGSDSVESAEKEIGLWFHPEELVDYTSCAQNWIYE

B1: recombinant human FABP4 (fatty acid binding protein 4) (other)
chain: CDAFVGTWKLVSSENFDDYMKEVGVGFATRKVAGMAKPNMIISVNGDVITIKSESTFKNTEISFILGQEFDEVTADDRKVKSTITLDGGVLVHVQKWDGKSTTIKRKREDDKLVVECVMKGVTSTRVYERA
notes: Recombinant human FABP4 produced in-house; also called aP2; hormonal FABP4
For the molecule B1, the values for the Kd in assay [1] and in assay [2] were roughly 700 nM and roughly 7 nM, respectively.

B2: CA33 (a-Ab) monoclonal antibody (antibody)
heavy: QSVEESGGRLVTPGTPLTLTCTVSGFSLSTYYMSWVRQAPGKGLEWIGIIYPSGSTYCASWAKGRFTISKASTTVDLKITSPTTEDTATYFCARPDNDGTSGYLSGFGLWGQGLVTVSSAKTTPPSVYPLAPGSAAQTNSMVTLGCLVKGYFPEPVTVTWNSGSLSSGVHTFPAVLQSDLYTLSSSVTVPSSTWPSETVTCNVAHPASSTKVDKKIVPRDC
light: DVVMTQTPASVSEPVGGTVTIKCGASEDISRYLVWYQQKPGQPPKRLIYKASTLASGVPSRFKGSGSGTDFTLTISDLECDDAATYYCQCTYGTYAGSFFYSFGGGTEVVVERTDAAPTVSIFPPSSEQLTSGGASVVCFLNNFYPKDINVKWKIDGSERQNGVLNSWTDQDSKDCTYSMSSTLTLTKDEYERHNSYTCEATHKTSTSPIVKSFNRNEC
notes: Described as a monoclonal antibody; also called active antibody
With B2, the binding result in the assay with NDPK-A peptide 15, with NDPK-A peptide 4, with NDPK-A peptide 12, with NDPK-A peptide 10, with NDPK-A peptide 6 and in the assay with NDPK-A peptide 9 was “no binding” in each case. In addition, the binding result with NDPK-A peptide 11, with NDPK-A peptide 5, with NDPK-A peptide 13, with NDPK-A peptide 7, with NDPK-A peptide 14 and in the assay with NDPK-A peptide 1 was “no binding” each time. In addition, the Kd in [3] was 116 nM; in [4], roughly 150 nM; in [5] it was roughly 1900 nM; in the assay with NDPK-A peptide 8, 69.6 nM; with NDPK-A peptide 2, 15900 nM; with NDPK-A peptide 3, 8980 nM.
